We go through 21 sequences from the DeepSol protein solubility set.

The nature of the series: soluble on expression in E. coli; label from the status in PepcDB or PDB records.
“MSLKILLMLLCVSVLGCSKNSVESEKPVDVLLIGGGIMSATLGTYLNELEPGWTIEMVERLDKVAEESSNGWNNAGTGHSAFCELNYTSEAADGSMDISKAVAINENFEISKQFWAYQVDRKVLNDPKSFINNVPHMSFVWGDDNVAFLKKRHAALQHSSLFRGMEYSEDPEQIKQWVPLVMEGREPGQKIAATRMSIGTDVNFGEITRQLVGSLSAKDTFKLRLQHEVRDLKRNDDNTWTVTMADLANGDKETSVKARFVFIGAGGGALKLLQMSGIPEAEGYAGFPVGGSFLATTNPDVVKRHLAKVYGKASVGSPPMSVPHLDTRMIDGKPVLLFGPFATFSTKFLKNGSLWDLPGSVTSGNIGPMFNAGIDNFDLSQYLIGQLMLSQDDRMASLREYFPEARDEDWKLVQAGQRVQIIKKDAEKGGVLQFGTEVVTAADGSVAALLGASPGASTAAPIMLSVLEKAFKDKVATPEWQARLKEIVPSYGRKLNNDIELTNSTRAWSSERLQLIHVPVQEGGSHHHHHH”: the “soluble on expression in E. coli” value is reported as “soluble”.

Regarding “MSLLSGDETLTVYLARVLSCPELFRVSTPEEARRIAEKILSGEIEPPLEFFGLRRDAVNEVLAVTDGPAGENVAPVGLRVRGDSIVVNLYPGSRTYENFVRTEELTACIVPDPIRFLKALSKELAIETVGDGTKVAEGTRAYLELEAKEIHEGKPLTAELQVVGWGLLHPRPRALVRGESALLEALVELTRIHLDEDHVDACKRALEVVKRTIWSEEYQWAVEKVERELRGKEDGPDHQDTSPRIRRATGEGHHHHHH”, the “soluble on expression in E. coli” value is listed as “soluble”.

On to “MADPPPNPSSVPPNGNLTGTPSAGNAAAVAPMAHEKDRQSKEGDEIVTKSGKKYKLGPVLGEGGYGTVFLSQDDDIKIAVIAVSCFPYIIVQNEVWFKEQKKHHVIHVVHNFSSKLLVNTTKYSRSSTVMRFNLHLITRKSTNYLWRLEKNANFVIVKTGIGKMKQSRPLSPQSLHSLIKNFAPRLTNSQKRRVLVLIFLISWSPISLPFLCTSISHHELIGINVLIKKIYVLQYFLNI”, for which the “soluble on expression in E. coli” value was “not soluble”.

Regarding “MASKVYDPEQRKRMITGPQWWARCKQMNVLDSFINYYDSEKHAENAVIFLHGNATSSYLWRHVVPHIEPVARCIIPDLIGMGKSGKSGNGSYRLLDHYKYLTAWFELLNLPKKIIFVGHDWGAALAFHYAYEHQDRIKAIVHMESVVDVIESWDEWPDIEEDIALIKSEEGEKMVLENNFFVETVLPSKIMRKLEPEEFAAYLEPFKEKGEVRRPTLSWPREIPLVKGGKPDVVQIVRNYNAYLRASDDLPKLFIESDPGFFSNAIVEGAKKFPNTEFVKVKGLHFLQEDAPDEMGKYIKSFVERVLKNEQVDHHHHHH”, the “soluble on expression in E. coli” value was “soluble”.

For the sequence “MSAPRLPVTVLTGFLGAGKTTLLSKLLENNKQRRLAILVNEFGEVSIDGGLLRDGENQGVEIHDLANGLVAYDDDADFLPTMLALWQRRQQIDHVLIETSGLALPSAVMAQLQSEALAPYFVLDATLAVVDTPLLLAGHFAPAGDGGKTDAVAALFDQQLGHADIVVLNKIDALSADQLLAAEEAVRKQAPSIRFIELAYEAKLDTRLTLGLHLHEASPAAHRHYGPVASMPGLAMRPLANQTLLDGHSHGGQAAHSHGLATHKHFHEQDPGWQSFMIRSKEPQCADKLAAALQAIAREEPLLRIKGFAACADSPGRLLAQGVRSRIELSRDDTLAAPRQAQLVFIGYHPSRPRVVALLRDITGAHWSLEHHHHHH”, the “soluble on expression in E. coli” value is listed as “not soluble”.

As for “MELWGRMLWALLSGPGRRGSTRGWAFSSWQPQPPLAGLSSAIELVSHWTGVFEKRGIPEARESSEYIVAHVLGAKTFQSLRPALWTQPLTSQQLQCIRELSSRRLQRMPVQYILGEWDFQGLSLRMVPPVFIPRPETEELVEWVLEEVAQRSHAVGSPGSPLILEVGCGSGAISLSLLSQLPQSRVIAVDKREAAISLTHENAQRLRLQDRIWIIHLDMTSERSWTHLPWGPMDLIVSNPPYVFHQDMEQLAPEIRSYEDPAALDGGEEGMDIITHILALAPRLLKDSGSIFLEVDPRHPELVSSWLQSRPDLYLNLVAVRRDFCGRPRFLHIRRSGP”, the “soluble on expression in E. coli” value is “soluble”.

Consider “MGSDKIHHHHHHMMVLEQPLKSFFTSLSQSKSMNKLAKKWGLKLGASQVVAGVTISEAIEKVKELNEKGLSATLDHLGEFVEERTEAIEATDHCIQTLEQIASSGVNCNLSLKLTQLGLDIDQSFCLENMERIIKKAAELGIFVRIDMEDYGHCQQTLDILAELRKTYDNVGTVIQAYLFRALDDVRALEGIPLRLVKGAYKESPEVAYQEKEKIDENYFNMIKLHLDSGTYTAIASHDHQIIDRVKAYVKEKGISHSQFEFQMLYGFRTNLQEELVKEGYNVRIYVPFGIDWFGYFMRRLAERPQNVAFALRGFFSK”, for which the “soluble on expression in E. coli” value is “not soluble”.

As to “MGSDKIHHHHHHMSDRLDEVDKRILYNLVRDARNTSAPDIADEVNVSAGTIRNRITHLEAAGIIRGYHAVVSYPQVGGRLTNLYICTSPVPDRDRLSKQVAEIPGVVSVRQLMKGRSNLHVTAVGDDMQELTRIANDLSAIGLDIEEENLLQSEEIRPYHEFGPDDSQDGHTIADFMELSGGAEVVELSVAADAEIAGHTLREANERGVIESDVLVVSIERDDEMLTPRGDTRVRPDDLVTVFCRGGISQETLSVFGKRGSATET”, the “soluble on expression in E. coli” value was “not soluble”.

Regarding “PVPPLPEHGGKVRFGLIPEEFFQFLYPKTGVTGPYVLGTGLILYLLSKEIYVITPETFSAISTIGFLVYIVKKYGASVGEFADKLNEQKIAQLEEVKQASIKQIQDAIDMEKSQQALVQKRHYLFDVQRNNIAMALEVTYRERLHRVYREVKNRLDYHISVQNMMRQKEQEHMINWVEKRVVQSISAQQEKETIAKCIADLKLLSKKAQAQPVM”, the “soluble on expression in E. coli” value is on record as “soluble”.

Regarding “MSNDQSAMNELHWLIDMVQTIEVGLVVLDRDYNIQLWNGFMENHSGVSPNSIKGQNLFSRFPDLPATWLKQKMESVFMLKNRAFISWEQRPYVFQFKNYRPITGRADFMYQNVTLLPLASLTGKITHISVIVYDVTDIAVNKLEHHHHHH”, the “soluble on expression in E. coli” value is given as “soluble”.

For the sequence “MGSDKIHHHHHHMKILFISSLYAPDIGGGAEIILQRTVEGLQQRGYSIAVLATTDRPGLQLAEVNRVKVYRAGLLNQYWHFMPQRPERLARFAWHWRDRYNGGMRDYVRQVIELEQPELVVCHNLTGWSVSAWDEITRANRPVVQVLHDLYLLCPSSTMFKKGQSCQRQCSLCTQFRKHHAQQSEQVSTVVGVSRFMLDTLQAQGYFKGARGYVVHNASPFTPPHAGQTKAADDTAPLRFGYLGTLSENKGVGWLINQFQHLPFKATLQIAGRGQSNDEKRFRAMATSPDISFVGFQKPEDFYQHIDVAIVPSMWNEPFGLVAVEACAHSRPVIASRMGGLPEIIQDQLNGLLCSPDDPDSLGLAMLKLHQQPELLARLGSQARNSVASLLNLDLMLDQYESIFAQTLQDRSTWHGERVQLDPG”, the “soluble on expression in E. coli” value is given as “not soluble”.

Consider “MGSDKIHHHHHHMRLGFYNIQGGTGKTTIAANIGYYLSDKTKTVYVDCDIYAGCGALLFGFEDSPHTLNSYLSGASALTDIIHQFDDLSVIVADSTPNSFNTEINQKRMLELIRVLNDNYDIVLLDLPPNITEGNLLFSSLNLEEKVVNKMIVVAEDSIPGIANTMKTKELLYAIDIDCIGVIVNKFKDTVDFDEALDDIIAILPYDKKVENQWMENVPAVQMKSKFSKELSYLAEDLAEVYIKKDLAAVRALKVAKELKDMTSKRQDVEEDEF”, for which the “soluble on expression in E. coli” value is recorded as “not soluble”.

Regarding “MGSDKIHHHHHHMTRKNKEQPAMSNNTSSNTNGKPQKRLIIITGDKGGVGKSTFARAIFQLYINKNLPCVAYEADLRNPQIERYFQKDYRPIIRYIDIFHRGGADDLLINLDESDCPITLLDLPAQSGCFFESYVKELAFFEVLKTEINCRVTMVSVISRVLDSINVLEKLRELCKDQVDYIVVKNLFHGEEEKFERYNDSSLRQNMLAEGLIELVMPDLFYKSYDFLDRHALTFNEGQTHQETNIVIKSRIKSWVAEFEAQIKPAFNFLGFDIQPDDCYYPAVVEKSKELRENEEKEKAKNQDANLPSEDIAA”, the “soluble on expression in E. coli” value is recorded as “not soluble”.

On to “MAGDPMYRVGIDVGGTNTDAVVLQDKTVLAGVKASTTEDVTSGVIEALEKVIDASGIDRARIGAVMIGTTHFTNAVIERRHMDEVAAIRIGLPSGAGLPPMVDWPDDLKEIVGNHGYQVRGGYEFDGREISPLDEDEIVRIAADIRAKALKAAAVTCVFSGINDAMEVRAKEILQDRCPGLPVVMSKDIGRHGLLARESAAIMNASLLSLADRTVAAFGEALKAAGITCPFYITQNDGTLMAADVVRGFPVLTFASGPTNSMRGAAFLTGLKDAVVVDVGGTTSDVGSLSHGFPRQASTTVDIGGVRTNFRMPDVFSIGLGGGSMVVNGDHGLTVGPKSVGYRVRRDALCFGGSTLTATDIAVASGKADVGEKALVSSLDKRLVDAAVNKINDMLEACVERSRISSSPVPVIAVGGGSILMPDRIGNLDVIRPENFAVANAVGAAIAQISGETDRVFSLIDGRTRESALAEAEAEAREKAIAAGAIAETLEVIEREDMPLAYLPGNATRIHVKVVGEMGANHGAAALEHHHHHH”, for which the “soluble on expression in E. coli” value was “not soluble”.

Consider “MVDNKVTQSNKLIESSHTLTLNEKRLVLCAASLIDSRKPLPKDGYLTIRADTFAEVFGIDVKHAYAALDDAATKLFNRDIRRYVKGKVVERMRWVFHVKYREGQGCVELGFSPTIIPHLTMLHKEFTSYQLK”, for which the “soluble on expression in E. coli” value was “soluble”.

“MAHHHHHHMHLIYLKILFFSLLLDTFISSHTNIPRINNVTPKNVAINISPVVPIPDVITLDYIKENLEQIRLIKDIIIKGKLKKLKVLKQKCKKNKKDKEIKNEIENLEREIMDTRKLCNNYIKNEIKEIKSLKDQIVKDKIEKDRWKKDLLIDYELKRLMYKPDIERLKQLNEEYKKEELRVAKLKDNMFKIYQFILYLIPNTIYYTIEFINNIPEVELSLPKFLKKKKKKKVNHFSHYGVPYMK”: the “soluble on expression in E. coli” value is “soluble”.

On to “MDPTEMRYLEEENGAMMKTFKDAVTGFATGKTSLVFIGVEQLVQNFRAKRDFFNGAHITMTKVARTHY”, for which the “soluble on expression in E. coli” value was “soluble”.

Turning to “MNYYSEKIEVVKLADQVAAKLQQLIGSGEYKKGDKIPTEPELMARFGVGRSTVRESVRILANAGLLSVLQGKGTFVQDTTVVAEPLHQRLRRANNKELNEVRHMLEITMVQKAAENRTEKEVKQMRTLLNQRRRAIEEQLQDECLNADIAFHVVIAEASKNQVLIDLYKTFSKVISEYFQTEYPDTKAYKRSQALHEKLCDAIATKESKKAAEYMSQILSLD”, the “soluble on expression in E. coli” value was “not soluble”.

Consider “EDRSVHFDSMSNGQGAASALPIFAEFLKRVYADPKLGYTTEEKFEFPQDFQPCMMDQNVEYFDAGGGEVVEPLPEILVELP”, for which the “soluble on expression in E. coli” value is given as “not soluble”.

Regarding “MEINEKLLRQIIEDVLSEMKGSDKPVSFNAPAASAAPQATPPAGDGFLTEVGEARQGTQQDEVIIAVGPAFGLAQTVNIVGIPHKSILREVIAGIEEEGIKARVIRCFKSSDVAFVAVEGNRLSGSGISIGIQSKGTTVIHQQGLPPLSNLELFPQAPLLTLETYRQIGKNAARYAKRESPQPVPTLNDQMARPKYQAKSAILHIKETKYVVTGKNPQELRVAL”, the “soluble on expression in E. coli” value was “soluble”.

“MGSDKIHHHHHHMIKHIFCDLDGTLYENGTITKEDIVAIEEIEKKGVQFNVATGRIFKQAHNIIKDSLDMNGYYVCENGSFIYDKDYNVIFKRTIDDNLVKKVIDRFESSDAQLYFKYKGDVIVGSDTTAFRHYSSDFIVDPDFEKRSSFDNLIGNIGVCSENLEELSRIELYLKSEFSEVLEIYFSGTYTLNIVPKSVSKRGSIEHVIKTLNVSPDEVATIGDSPNDICMLEGFKYSFAMSKAREDVKQSANYVVDSVKSAIDVIMEINS”: the “soluble on expression in E. coli” value is “not soluble”.
